Experimental data: article PMC5050915, “CYP79D enzymes contribute to jasmonic acid-induced formation of aldoximes and other nitrogenous volatiles in two Erythroxylum species” (BMC Plant Biology, 2016)

Experiments:
[1] = biological target: T1, CYP79D61 (Erythroxylum fischeri, UniProt A0A1D8QQQ4); assay: aldoxime formation by recombinant yeast microsomes, LC-MS/MS; format: biochemical; details: 1 mM substrate, 1 mM NADPH, 75 mM sodium phosphate pH 7.0, 25 °C
T1 construct: complete ORF in pESC-Leu2d, Saccharomyces cerevisiae WAT11 microsomes
T1 sequence (A0A1D8QQQ4 1-531): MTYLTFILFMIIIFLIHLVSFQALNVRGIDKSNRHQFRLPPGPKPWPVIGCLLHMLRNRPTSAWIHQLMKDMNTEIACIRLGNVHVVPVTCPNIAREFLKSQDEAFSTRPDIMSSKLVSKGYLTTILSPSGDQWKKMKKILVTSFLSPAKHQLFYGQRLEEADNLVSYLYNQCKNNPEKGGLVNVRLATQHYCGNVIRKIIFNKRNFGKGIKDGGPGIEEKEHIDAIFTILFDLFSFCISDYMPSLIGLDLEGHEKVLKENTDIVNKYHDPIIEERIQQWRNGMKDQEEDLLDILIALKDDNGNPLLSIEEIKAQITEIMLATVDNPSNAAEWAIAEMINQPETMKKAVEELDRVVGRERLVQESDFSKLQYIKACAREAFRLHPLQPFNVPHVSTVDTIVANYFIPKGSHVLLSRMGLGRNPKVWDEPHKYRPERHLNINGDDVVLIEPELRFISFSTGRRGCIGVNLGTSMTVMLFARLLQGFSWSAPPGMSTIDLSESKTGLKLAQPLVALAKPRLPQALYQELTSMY

[2] = substrate: N[C@@H](Cc1ccc(O)cc1)C(=O)O; assay: cells, lysate or membranes; details: 1 mM NADPH, 75 mM sodium phosphate pH 7.0, 25 °C
[3] = substrate: CC[C@H](C)[C@H](N)C(=O)O; assay: cells, lysate or membranes; details: 1 mM NADPH, 75 mM sodium phosphate pH 7.0, 25 °C
[4] = substrate: N[C@@H](Cc1ccccc1)C(=O)O; assay: aldoxime formation by recombinant yeast microsomes, LC-MS/MS; format: biochemical, Erythroxylum fischeri; details: 1 mM NADPH, 75 mM sodium phosphate pH 7.0, 25 °C
[5] = substrate: N[C@@H](Cc1c[nH]c2ccccc12)C(=O)O; assay: as above; format: biochemical, Erythroxylum fischeri; details: 1 mM NADPH, 75 mM sodium phosphate pH 7.0, 25 °C
[6] = substrate: N[C@@H](Cc1ccccc1)C(=O)O; assay: as above; format: biochemical, Erythroxylum coca; details: 1 mM NADPH, 75 mM sodium phosphate pH 7.0, 25 °C
[7] = substrate: N[C@@H](Cc1c[nH]c2ccccc12)C(=O)O; assay: as above; format: biochemical, Erythroxylum coca; details: 1 mM NADPH, 75 mM sodium phosphate pH 7.0, 25 °C
[8] = substrate: N[C@@H](Cc1c[nH]c2ccccc12)C(=O)O; assay: as above; format: biochemical, Erythroxylum coca; details: 1 mM NADPH, 75 mM sodium phosphate pH 7.0, 25 °C; remark: listed apart in the source
From the text: aldoxime formation by recombinant yeast microsomes, LC-MS/MS on CYP79D63

## N[C@@H](Cc1ccccc1)C(=O)O [L-Phe]
[1]
  aldoxime formation by recombinant yeast microsomes, LC-MS/MS: CYP79D62, CYP79D60, and CYP79D61 accepted all tested amino acids

B1: CYP79D60 (Erythroxylum fischeri) (protein)
chain: MTYLILILIMIITFLIHLVSFQALNVRGSDKSNRQQFQLPPGPKPWPVIGCLLQMLRNRPTSAWIHQLMKDMNTEIACIRLGNVHVIPVTCPNIAREFLKSQDEAFSSRPDFMSNKLVSKGYLTTALSPSGDQWKKMKKILVTSFLSPAKHKLFYGKRLEEADHLVSYLYNQCKNNPEKGGLVNVRLATQHYCGNVIRKIVFNKRNFGKGMEDGGPGIEEKEHIDALFTILFYLFSFCISDYMPSLIGLDLEGHEKVLRENTDIVNKYHDPIIEERIQQWRNGMKDQEEDLLDILIALKDDNGSPLLSIEEIKAQITEIMIAAVDNPSNAAEWAIAEMINQPETMKKAVEELDRAVGRERLVQESDFSKLKYIKACAREAFRLHPMEAFNVPHVSTVDTIVANYFIPKGSHVLLSRMGIGRNPKVWDEPHKYKPERHLKNGDDVVLTEPELRFISFSTGRRGCIGVNLGTSMTVMLFARLLQGFSWSAPPGMSTIDLSESKTGLKLAQPLVALAKPRLPQALYQELTSCINHS
notes: complete ORF in pESC-Leu2d, Saccharomyces cerevisiae WAT11 microsomes
[2]
  Km: 6090 ± 1320 µM
[3]
  Km: 1280 ± 250 µM
[4]
  Km: 580 ± 50 µM
[5]
  Km: 2740 ± 110 µM

B2: CYP79D62 (Erythroxylum coca) (protein)
chain: MTYLILILIMIILVSFQALNVRCNDKSNRHQLQLPPGPKPWPVIGCLPQMLRNRPTFAWIHQLMKDMNTEIACIRLGNVHVIPVTCPNIAREFLKSQDEAFSSRPDFMSNKLVSKRYLTTALSPSGDQWKKMKKILVTSFLSPAKHQLFYGKRLEEADNLVSYLYGQCKNNPEKGGLVNVRLATRHYCGNVIRKIVFNKRNFGEGMKDGGPGIEEKEHIDAIFTILSYLFSFCISDYMPSLIGLDLEGHEKVLKENTDIVNKYHDPIIEERIQQWRNGMKDREEDLLDILIALKDDNGNPLLSIEEIKAQITEIILATVDNPSNAAEWAIAEMINQPEMMKKAVEELDRVVGRERLVQESDFVKLQYVKACAREAFRLHPLEPFNIPHVSTVDTTVANYFIPKGSHVLLSRMGLGRNPKVWDEPHKYKPERHLSNGDDVVLIEPELRFISFSTGRRGCIGVNLGTSMTVMLFARLLQGFSWSAPPGKLAINLNESKTGLALAQPLVALAKPRLPQALYQELTSCINHS
notes: as for B1
[6]
  Km: 670 ± 70 µM
[7]
  Km: 1090 ± 40 µM
[2]
  Km: 4990 ± 460 µM
[3]
  Km: 3270 ± 420 µM

B3: CYP79D63 (Erythroxylum coca) (protein)
chain: MTYLILILIMIISFLIHLVSFQALNVRGSGKSNRHQFQLPPGPKPWPVIGCLPQMLRNRPTFAWIHQLMKDMNTEIACIRLGSIHVIPVTCPNIAREILKSQDEAFSSRPDFMSSTLVSRGYLATTLSPPGDQWKKMRKILVTSCLSPAKHRLFYRKRLEVADNLVSYLYSQCKDNPEKGGLVNVRLATQHYCGNVIRKIVFNKRNFGKGMKDGGPGIEEKEHIDALFTILFYVFSFCISDYMPSLIGLDLEGHEKVLKENTDIVNKYHDPIIQERIRQWRNGMKDQEEDLLDILIALKDNNGNPLLSIEEIKAQITEIVLASVDNPSNAAEWAIAEMINQPKIMKKAVEELDSVVGSERLVQESDFSKLQYVKACAREAFRLHPMQPFNVPHVSTMDTTIANYFIPKGSHVLLSRMRLGRNSKVWDEPHKYRPERHLSNGDDVLLIEPELRFISFSTGRRGCIGVNLGTSMTIMLFARLLQGFNWSAPPGKSAVDLNESKIGLTLAQPLVALAKPRLPQALYQELTSCINHS
notes: as for B1
[8]
  Km: 480 ± 50 µM
